The results in this text go back to the supplement of paper PMC10567573.

± gives the standard deviation.

The nature of this data set: protein stability index of a GFP-peptide fusion (GPS, HEK-293T) (PSI 1-6); higher = more stable.
[1] abbreviates: treatment: DMSO, c terminus: a fixed tail appended.
Setting [2] is: treatment: MLN4924 1 uM, 8 h, c terminus: a fixed tail appended.
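Also: 24-mer peptide tiles fused after GFP, lentivirally expressed, FACS-sorted into six equal bins by GFP/DsRed ratio, decoded by Illumina sequencing, PSI is the read-weighted mean bin number.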

The sequence RKSLLVVHQRTHTGEKPHTCSECG [ZNF649] had a protein stability index under setting [1] of 3.98 ± 0.21 and a protein stability index under setting [2] of 3.95 ± 0.42. The corresponding values for RLDGCIYAIKRSKKPLAGSVDEQN [WEE1] are 3.54 ± 0.28 and 3.73 ± 0.22. The corresponding values for RLLRFSSQIHNNGQSDFRPKNGRH [LOXL2] are 3.2 ± 0.41 and 3.42 ± 0.81. The corresponding values for RLNGTAKGERRREPGGYDSSSTLM [DVL3] are 3.62 ± 0.13 and 4.01 ± 0.31. Turning to RLPFLSSSNLSLDVLRGNDETIGF [POMP], the protein stability index runs as follows: under setting [1], 3.02 ± 0.42; under setting [2], 3 ± 0.27. The corresponding values for RLQELCHGWLRPEMRTKEQILELL [ZNF263] are 2.58 ± 0.11 and 2.9 ± 0.12. The corresponding values for RLVHTTAIEHFQPNADLLFSDPSQ [FCHO1] are 3.78 ± 0.15 and 3.87 ± 0.24.

In the case of RMLKDNKKNWRRVYKSLLLLAYLI [CLINT1], the protein stability index came out at 2.45 ± 0.38 under setting [1] and 2.63 ± 0.23 under setting [2]. With RNGSERVVTSAREHIYDLRSLENY [CLINT1], the protein stability index by setting is: under setting [1], 3.5 ± 0.16; under setting [2], 3.81 ± 0.25. The corresponding values for RNPGPGRHRLITQVYLSHTAWTEA [INTS4] are 2 ± 0.23 and 2.29 ± 0.35. The corresponding values for RNQVVSSTNGELNVDDPTGAHSNA [CSNK1G1] are 5.25 ± 0.12 and 5.22 ± 0.18. Regarding RQKVLSLPLPDPLKYYLLYYREK [PCMTD2], the protein stability index (treatment: DMSO, c terminus: native) stood at 2.14 ± 0.18 and the protein stability index (treatment: MLN4924 1 uM, 8 h, c terminus: native) is 2.46 ± 0.19. With RRCKPKKPTRRDASPESPSKKGPI [GNAS], the protein stability index reads like this: under setting [1], 5.15 ± 0.21; under setting [2], 5.23 ± 0.22. The corresponding values for RRNSEFEIFVDCDINREQLNDIFH [TPH1] are 2.55 ± 0.096 and 2.73 ± 0.27. For RSDLYSSGRDRVGRQERGLPPSME [RBMX], the protein stability index is, setting by setting: under setting [1], 4.41 ± 0.091; under setting [2], 4.51 ± 0.23.

For RSHEGETAYIRVKVDGPRSPSYGR [SRSF1], the protein stability index under setting [1] was determined as 3.83 ± 0.19 and the protein stability index under setting [2] amounted to 3.73 ± 0.32. As to RSIFGNAVSRELIEIGCEDKTLAF [MLH1], the protein stability index under setting [2] stood at 2.97 ± 0.41. RSLSACNKRVGMYLEGFDPFNQST [DLC1]: the protein stability index runs as follows: under setting [1], 2.85 ± 0.39; under setting [2], 2.81 ± 0.5. The corresponding values for RSLSPSLSSVDMRMTSSPSSIPRR [RAD54B] are 4.66 ± 0.15 and 4.69 ± 0.18. The corresponding values for RSSHLVIHERTHERERLYPFSECG [ZNF263] are 2.93 ± 0.21 and 3.25 ± 0.3. The corresponding values for RSSVELELERCRQQAGLLVTGEKE [PPEF2] are 4.74 ± 0.57 and 4.86 ± 0.34.

Consider RTAFLWRGNVVLRAQMIRNEYRKL [TRIM43], for which the protein stability index reads like this: under setting [1], 2.66 ± 0.29; under setting [2], 2.51 ± 0.29. The corresponding values for RTILLSVISLLNEPNTFSPANVDA [CDC34] are 2.77 ± 0.41 and 2.66 ± 0.54. The corresponding values for RTVAVGDIVWGKIHGFPWWPARVL [PWWP2B] are 2.02 ± 0.47 and 2.17 ± 0.23. The corresponding values for RVEEQAILDAMAEETRQKQLLADE [TRIM35] are 5.57 ± 0.26 and 5.38 ± 0.15.

Regarding RVTSLANLISPVRNGAVRRFGQTI [NET1], the protein stability index is 2.55 ± 0.14 under setting [1] and 2.63 ± 0.33 under setting [2].

Regarding RVYFLKGGYETFYSEYPECCVDVK [DUSP5], the protein stability index reads like this: under setting [1], 2.09 ± 0.23; under setting [2], 2.46 ± 0.55. Regarding RWGYVAMKFAQVFGCFFYVYYIFE [SOAT1], the protein stability index by setting is: under setting [1], 3.17 ± 0.22; under setting [2], 3.18 ± 0.39. Regarding RYCQCNPDDSTSEDGIHTLTCALM [PSD2], the protein stability index was 3.96 ± 0.32 under setting [1] and 4.09 ± 0.18 under setting [2]. The corresponding values for SAENGLEKSGFSQHQNKSPPKVKA [DLC1] are 5.14 ± 0.44 and 5.1 ± 0.45. The corresponding values for SAGDADPENGEIKPASKPAGSSHT [ELOA2] are 5.42 ± 0.42 and 5.47 ± 0.44.

For SAVSTPSPVTRTRSLSACNKRVGM [DLC1], the protein stability index reads like this: under setting [1], 4.36 ± 0.19; under setting [2], 4.38 ± 0.16. The corresponding values for SDAIRVVNAVLTQIDQIKRHSNVV [TRIP13] are 2.33 ± 0.2 and 2.35 ± 0.21. The corresponding values for SDDDEEEEENIGCEEKAKKNANRP [ACBD3] are 5.42 ± 0.28 and 5.49 ± 0.38. The corresponding values for SDKEIVAEAERLDVKAMGPLVLTE [EIF5] are 5.08 ± 0.054 and 5.23 ± 0.31.

Regarding SDLKDDDAVPPGMESLISAPLVKT [CDC25B], the protein stability index is 5.21 ± 0.28 under setting [1] and 5.17 ± 0.43 under setting [2].

Consider SELRRTMQALEIELQSQLSMKASL [KRT17], for which the protein stability index runs as follows: under setting [1], 2.46 ± 0.21; under setting [2], 2.23 ± 0.2. The corresponding values for SFFFPPVNLPISFFRKLLDCCQVS [NLN] are 2.23 ± 0.77 and 2.25 ± 0.5. The corresponding values for SFPLWYEEALKDEEERAQDRIATT [MAGEA10] are 4.71 ± 0.19 and 4.5 ± 0.27. The corresponding values for SGDFRSSTEDMERALSEYLAVFAR [P3H4] are 3.44 ± 0.23 and 4.11 ± 0.17.

With SGEDPTAAAPVAEVPTAAGALTPT [CLPTM1], the protein stability index was 5.42 ± 0.16 under setting [1] and 5.47 ± 0.36 under setting [2].

Consider SGFVGSGGWFCEGSFNGSEKETMQ [KRT36], for which the protein stability index runs as follows: under setting [1], 3.87 ± 0.36; under setting [2], 3.65 ± 0.19. The corresponding values for SGGHERSRDRRRSSDRSRDSSHER [BTBD10] are 5.48 ± 0.18 and 5.59 ± 0.19.

Take SGPARVIAIVSVMVILISIVIFCL [KCNA1]: the protein stability index runs as follows: under setting [1], 2.18 ± 0.14; under setting [2], 2.22 ± 0.32. The corresponding values for SIGALISKAHLEKVRSYVKRALAE [ALDH8A1] are 2.42 ± 0.51 and 2.6 ± 1.1. With SILNAKAPALPPGGTDPHGYHQVP [FOXJ1], the protein stability index came out at 3.6 ± 0.2 under setting [1] and 3.66 ± 0.14 under setting [2]. The corresponding values for SIPRHFALSGKYSREFFNRRGELR [SRPK2] are 2.74 ± 0.46 and 2.8 ± 0.46.

On to SISLMYGGSKRKSSFFSSPPYFED [SLA], for which the protein stability index is 2.37 ± 0.38 under setting [1] and 2.59 ± 0.2 under setting [2]. The corresponding values for SKRMGPMTVVRMDASVQPGPFRTL [RHOBTB1] are 2.76 ± 0.14 and 2.91 ± 0.48. The corresponding values for SLARLQQLLFVIFLLLYLFTLGTN [OR10K2] are 2.78 ± 0.51 and 2.13 ± 0.53. The corresponding values for SLEESVGKPLYLIFRNLCQMQEDN [INTS3] are 2.45 ± 0.45 and 2.46 ± 0.22. For the sequence SLEHVQLFDLMRRMLEFDPAQRIT [CLK3], the protein stability index by setting is: under setting [1], 2.31 ± 0.29; under setting [2], 2.07 ± 0.36. Take SLGLDHCHSFISGTAPLNQETAEF [ACSBG2]: the protein stability index was 4.18 ± 0.21 under setting [1] and 4.06 ± 0.16 under setting [2]. The corresponding values for SLISGCPNIQEAVEGAMHIQECVP [CRYL1] are 3.87 ± 0.29 and 3.98 ± 0.18. The corresponding values for SLKFFLNKPMLADVVFEIQGTTVP [RHOBTB3] are 2.68 ± 0.39 and 2.29 ± 0.37.

For SLLDVAEPGGPGWLPESDCETVTC [SMAD6], the protein stability index turned out to be 4.63 ± 0.27 under setting [1] and 4.74 ± 0.18 under setting [2].

Consider SLSELLSQLDSGVSQAVEGPEELS [RIPK4], for which the protein stability index by setting is: under setting [1], 4.27 ± 0.29; under setting [2], 4.1 ± 0.4. The corresponding values for SLSHINAYACLVCGKYFQGRGLKS [USP39] are 2.14 ± 0.39 and 2.07 ± 0.42.

SLSRNNSFRRNVGRVLLANSTQAD [FBXO34] came in with a protein stability index under setting [1] of 3.15 ± 0.24 and a protein stability index under setting [2] of 3.21 ± 0.3.

The sequence SLVSLVLYNMDLSDDHIRVIVQLH [ZER1] yielded a protein stability index under setting [1] of 2.63 ± 0.41 and a protein stability index under setting [2] of 2.71 ± 0.54.

Consider SMAKEVIAKELSKTYQETPEIDMF [ZBED1], for which the protein stability index is, setting by setting: under setting [1], 4.11 ± 0.21; under setting [2], 4.05 ± 0.18. The corresponding values for SMDNTPHTPTPFKNALEKYGPLKP [MYBL2] are 3.48 ± 0.092 and 3.7 ± 0.16. The corresponding values for SMEKDATLNVDRKEKCVSLPDCCH [DLC1] are 4.81 ± 0.2 and 4.92 ± 0.17.

Take SMRKIVATWMLEVCEEQKCEEEVF [CCND1]: the protein stability index runs as follows: under setting [1], 2.3 ± 0.25; under setting [2], 2.47 ± 0.17. The corresponding values for SPADYLRFQDLVLRMLEYEPAARI [DYRK1B] are 2.56 ± 0.35 and 2.43 ± 0.33.

Regarding SPDDPESVKIIFKLPNDSRVERRF [FAF2], the protein stability index under setting [1] was determined as 3.36 ± 0.23 and the protein stability index under setting [2] worked out at 3.46 ± 0.24.

For the sequence SPELGRPHDRSQGDWAPPPEGGME [ZNF263], the protein stability index by setting is: under setting [1], 5.18 ± 0.21; under setting [2], 5.41 ± 0.25. The corresponding values for SPKRGTAPGDLSATEPATCFPSTQ [FBF1] are 4.87 ± 0.18 and 4.92 ± 0.24. The corresponding values for SPQIQRSAHRALYRRHVLGIVLQG [TMEM175] are 2.3 ± 0.19 and 2.42 ± 0.36. The corresponding values for SPRDEYKPLDLSDSTLSYTETEAT [SMAD6] are 5.45 ± 0.24 and 5.41 ± 0.23. SPTSRPPWAVDPAFAERYAPDKTS [PDLIM7] displayed a protein stability index under setting [1] of 4.63 ± 0.21 and a protein stability index under setting [2] of 4.7 ± 0.31. The corresponding values for SQDEPIALDKQHSRDSAAITHSTY [NOL4L] are 5.01 ± 0.22 and 5.08 ± 0.16.
